{"source": "paper PMC5820116", "about": "(SLAS discovery : advancing life sciences R & D, 2017)", "substrate": "Nc1ncnc2c1ncn2[C@@H]1O[C@H](COP(=O)(O)OP(=O)(O)OP(=O)(O)O)[C@@H](O)[C@H]1O", "assay": "ATP:PPi exchange steady-state kinetics", "assay_type": "biochemical, Pseudomonas aeruginosa", "conditions": "Mg2+ active region of the catalytic domain formed by the three structural motifs", "data": [{"protein": "Aspartyl-tRNA synthetase (AspRS) (Pseudomonas aeruginosa PAO1) (protein) MMRSHYCGQLNESLDGQEVTLCGWVHRRRDHGGVIFLDVRDREGLAQVVFDPDRAETFAKADRVRSEFVVKITGKVRLRPEGARNPNMASGSIEVLGYELEVLNQAETPPFPLDEYSDVGEETRLRYRFIDLRRPEMAAKLKLRARITSSIRRYLDDNGFLDVETPILGRPTPEGARDYLVPSRTYPGHFFALPQSPQLFKQLLMVAGFDRYYQIAKCFRDEDLRADRQPEFTQIDIETSFLDESDIIGITEKMVRQLFKEVLDVEFDEFPHMPFEEAMRRYGSDKPDLRIPLELVDVADQLKEVEFKVFSGPANDPKGRVAALRVPGAASMPRSQIDDYTKFVGIYGAKGLAYIKVNERAKGVEGLQSPIVKFIPEANLNVILDRVGAVDGDIVFFGADKAKIVCDALGALRIKVGHDLKLLTREWAPMWVVDFPMFEENDDGSLSALHHPFTSPKCTPAELEANPGAALSRAYDMVLNGTELGGGSIRIHDKSMQQAVFRVLGIDEAEQEEKFGFLLDALKYGAPPHGGLAFGLDRLVMLMTGASSIREVIAFPKTQSAGDVMTQAPGSVDGKALRELHIRLREQPKAE", "values": [{"measurement": "Km", "result": 495, "unit": "µM"}]}]}
